Data on two molecules can be found in article PMC10850359, “A mediator of OsbZIP46 deactivation and degradation negatively regulates seed dormancy in rice”.

This data set addresses T1, His::ABI5 (Oryza sativa (rice), UniProt Q8RZ35 1-388).
T1 sequence: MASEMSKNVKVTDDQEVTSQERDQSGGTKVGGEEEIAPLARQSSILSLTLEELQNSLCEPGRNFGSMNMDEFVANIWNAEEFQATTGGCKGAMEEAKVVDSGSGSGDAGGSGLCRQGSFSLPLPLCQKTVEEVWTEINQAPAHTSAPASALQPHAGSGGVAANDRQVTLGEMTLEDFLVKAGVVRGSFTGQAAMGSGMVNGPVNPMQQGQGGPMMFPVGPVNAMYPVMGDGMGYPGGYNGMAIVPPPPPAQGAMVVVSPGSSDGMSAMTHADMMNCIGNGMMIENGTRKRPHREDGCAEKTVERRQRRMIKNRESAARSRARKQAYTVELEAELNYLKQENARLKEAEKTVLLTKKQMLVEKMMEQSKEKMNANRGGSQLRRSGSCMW
The data set is described as follows: EMSA; Beyotime Chemiluminescent EMSA Kit; 2 ug His::ABI5, 1 uL biotin probe (1 ng), 25 C, 20 min; unlabeled probe (1 ng) as competitor; buffer, salt and pH not stated. Conditions: protein: recombinant; tags: His (pET28a); chain copies: 2; label: biotin; blunt.

B1: EMSA-EM1-bio (dsDNA)
DNA 1: CATAGCTTGCGCACGTACGTGTCGCGCTCCGGCGG
DNA 2: CCGCCGGAGCGCGACACGTACGTGCGCAAGCTATG
As to B1, the binding result is recorded as “binds”.

B2: EMSA-LEA3-bio (dsDNA)
DNA 1: GATGACTTGGCATGCTCACGTGGCATTTTTTTTGGTCTAA
DNA 2: TTAGACCAAAAAAAATGCCACGTGAGCATGCCAAGTCATC
Take B2: the binding result is recorded as “binds”.
